Measured values taken from article PMC2566858 (Nucleic Acids Research, 2008).
Where two headings read alike, the source gives them in different places.

Assays:
Assay in all cases: fluorescence anisotropy
[1] = molecular target: T1, rGyr_hel K106Q (Thermotoga maritima, UniProt O51934 59-541, K106Q)
T1 sequence: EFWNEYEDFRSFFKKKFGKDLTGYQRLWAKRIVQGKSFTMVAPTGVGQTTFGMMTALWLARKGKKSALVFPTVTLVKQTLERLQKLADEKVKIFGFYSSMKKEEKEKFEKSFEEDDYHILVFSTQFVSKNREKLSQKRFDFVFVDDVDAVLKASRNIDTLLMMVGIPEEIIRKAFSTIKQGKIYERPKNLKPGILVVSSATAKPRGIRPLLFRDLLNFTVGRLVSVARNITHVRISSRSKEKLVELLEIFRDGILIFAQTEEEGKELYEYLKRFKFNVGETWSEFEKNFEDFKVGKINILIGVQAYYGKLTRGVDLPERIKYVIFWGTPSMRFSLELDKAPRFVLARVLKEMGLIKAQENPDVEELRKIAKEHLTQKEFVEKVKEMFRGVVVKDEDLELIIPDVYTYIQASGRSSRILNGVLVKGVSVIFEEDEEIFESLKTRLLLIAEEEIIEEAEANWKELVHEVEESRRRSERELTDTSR

[2] = molecular target: T2, rGyr_hel (reverse gyrase helicase-like domain) (Thermotoga maritima, UniProt O51934 59-541)
T2 sequence: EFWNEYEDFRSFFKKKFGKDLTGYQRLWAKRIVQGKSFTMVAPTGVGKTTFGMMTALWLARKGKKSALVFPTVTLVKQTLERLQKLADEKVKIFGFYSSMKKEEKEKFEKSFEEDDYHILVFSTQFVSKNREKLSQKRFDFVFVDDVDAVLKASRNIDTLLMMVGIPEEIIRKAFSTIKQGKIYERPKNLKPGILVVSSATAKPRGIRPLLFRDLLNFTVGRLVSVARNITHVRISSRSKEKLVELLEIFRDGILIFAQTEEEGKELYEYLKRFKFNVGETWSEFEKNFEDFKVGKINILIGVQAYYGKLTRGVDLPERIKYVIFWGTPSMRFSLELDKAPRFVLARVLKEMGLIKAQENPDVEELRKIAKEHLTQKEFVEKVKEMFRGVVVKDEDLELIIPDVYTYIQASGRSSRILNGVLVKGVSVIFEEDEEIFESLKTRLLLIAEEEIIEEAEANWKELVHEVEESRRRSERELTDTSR

[3] = molecular target: T2, rGyr_hel (reverse gyrase helicase-like …); remark: listed apart in the source
[4] = molecular target: T3, rGyr_fl Y851F (full-length reverse gyrase) (Thermotoga maritima, UniProt O51934 1-1104, Y851F)
T3 sequence: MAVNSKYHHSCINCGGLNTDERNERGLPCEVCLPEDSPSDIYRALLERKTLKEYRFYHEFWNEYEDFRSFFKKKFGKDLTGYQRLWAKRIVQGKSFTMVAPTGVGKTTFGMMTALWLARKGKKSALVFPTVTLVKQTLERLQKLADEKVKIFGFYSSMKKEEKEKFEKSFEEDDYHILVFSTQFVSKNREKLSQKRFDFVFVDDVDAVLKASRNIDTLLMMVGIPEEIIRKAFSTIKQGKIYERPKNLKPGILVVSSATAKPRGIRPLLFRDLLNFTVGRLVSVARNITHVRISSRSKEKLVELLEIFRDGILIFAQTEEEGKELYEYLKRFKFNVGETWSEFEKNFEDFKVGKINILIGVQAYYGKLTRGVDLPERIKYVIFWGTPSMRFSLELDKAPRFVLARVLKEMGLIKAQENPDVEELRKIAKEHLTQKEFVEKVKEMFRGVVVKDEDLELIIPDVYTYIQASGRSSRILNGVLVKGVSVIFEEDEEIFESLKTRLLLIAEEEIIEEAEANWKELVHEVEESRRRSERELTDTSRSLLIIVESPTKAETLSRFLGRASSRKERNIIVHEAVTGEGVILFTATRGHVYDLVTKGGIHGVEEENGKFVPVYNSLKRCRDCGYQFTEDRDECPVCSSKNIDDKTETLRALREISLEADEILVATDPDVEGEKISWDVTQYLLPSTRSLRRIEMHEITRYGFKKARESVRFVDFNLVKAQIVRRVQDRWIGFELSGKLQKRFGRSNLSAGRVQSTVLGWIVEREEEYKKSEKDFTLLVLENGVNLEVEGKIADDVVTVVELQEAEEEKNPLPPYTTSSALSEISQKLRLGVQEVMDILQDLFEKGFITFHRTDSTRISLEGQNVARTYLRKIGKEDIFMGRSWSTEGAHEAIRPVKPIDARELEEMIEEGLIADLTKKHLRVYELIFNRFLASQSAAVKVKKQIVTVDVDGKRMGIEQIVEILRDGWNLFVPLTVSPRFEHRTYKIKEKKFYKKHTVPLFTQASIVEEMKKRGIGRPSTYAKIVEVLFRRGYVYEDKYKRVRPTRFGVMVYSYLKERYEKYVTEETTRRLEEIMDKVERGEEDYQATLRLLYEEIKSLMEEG

[5] = molecular target: T2, rGyr_hel (reverse gyrase helicase-like …); remark: listed apart in the source
[6] = molecular target: T3, rGyr_fl Y851F (full-length reverse …); remark: listed apart in the source

B1: 60-base ssDNA (ssDNA)
DNA: AAGCCAAGCTTCTAGAGTCAGCCCGTGATATTCATTACTTCTTATCCTAGGATCCCCGTT
Kd [1]: 200 ± 20 nM | Kd [2]: 600 ± 70 nM | Kd [3]: 920 ± 210 nM | Kd [4]: 49 ± 12 nM | Kd [5]: 380 ± 50 nM | Kd [6]: 330 ± 20 nM
